The values below come from PMC12809912 (2025).

First the molecules themselves.
B1: mouse monoclonal antibody clone 1A8 (anti-DEFA5) [modified: Fc glycosylation, mainly the G1F glycoform (intact ESI-MS)] [mouse] / peptide No. 57 of the overlapping library, DEFA5 amino acids 61-75 (ARATCYCRTGRCATR) [human] (parent complex)
chain 1: QVQLQQSGAELVRPGASVKMSCKALGYTFFDYEMHWMKQTPVYGLEWIGAIHPGSGDTAYNQKFKGKATLTADKSSNTAYMELSSLTSEDSAVYYCTREGTVVAPFDYWGQGTTLTVSS
chain 2: DVLMTQTPLSLPVSLGDQASISCRSSQSIVHSNGNTYLEWYLQKPGQSPKLLINKVSNRFSGVPDRFSGSGSGTDFTLKISRVEAEDLGVYYCFQGSYVPYTFGGGTKLEIK
chain 3: ARATCYCRTGRCATR

The variants in one test derive from B1. As to the kind of experiment: indirect ELISA; parent: 2.2; read off a plot. (In general: An ELISA detects its analyte on a solid surface through an enzyme-linked reagent.)
On to chain 3 ARATCACRTGRCATR [chain 3 Y6A], for which the response was around 1.9 OD450nm. chain 3 ARATCYCATGRCATR [chain 3 R8A]: the response is around 1.8 OD450nm.

Take chain 3 ARATAYCRTGRCATR [chain 3 C5A]: the response is around 1.9 OD450nm. chain 3 ARGTCYCRTGRCATR [chain 3 A3G]: the response was around 1.8 OD450nm. Same read-out and setting: under chain 3 ARATCYCRTGRCATA [chain 3 R15A] stands around 2.2 OD450nm. For chain 3 ARATCYCRAGRCATR [chain 3 T9A], the response is around 1.7 OD450nm. The same measure, in the same setting: under chain 3 ARATCYCRTGRAATR [chain 3 C12A] stands around 0.95 OD450nm.

For chain 3 ARAACYCRTGRCATR [chain 3 T4A], the response was around 1.9 OD450nm.

In the case of chain 3 ARATCYCRTGRCAAR [chain 3 T14A], the response is around 1.7 OD450nm. Take chain 3 ARATCYCRTGACATR [chain 3 R11A]: the response was around 0.07 OD450nm. For chain 3 AAATCYCRTGRCATR [chain 3 R2A], the response is around 1.9 OD450nm.

As for chain 3 ARATCYCRTARCATR [chain 3 G10A], the response is around 1.9 OD450nm.

In the case of chain 3 ARATCYCRTGRCGTR [chain 3 A13G], the response is around 1.8 OD450nm.

Another test covers variants of B1. As to the kind of experiment: indirect ELISA; parent: 2.6; read off a plot.
Consider chain 3 ARATCACRTGRCATR [chain 3 Y6A], for which the response was around 1.8 OD450nm. Same read-out and setting: under chain 3 ARATCYCATGRCATR [chain 3 R8A] stands around 1.8 OD450nm; under chain 3 ARATAYCRTGRCATR [chain 3 C5A], around 2 OD450nm.

As for chain 3 ARATCYARTGRCATR [chain 3 C7A], the response is around 1.2 OD450nm.

For the variant chain 3 ARGTCYCRTGRCATR [chain 3 A3G], the response is around 1.8 OD450nm.

Turning to chain 3 ARATCYCRTGRCATA [chain 3 R15A], the response was around 2.6 OD450nm. In the case of chain 3 ARATCYCRAGRCATR [chain 3 T9A], the response is around 1.9 OD450nm. Take chain 3 ARATCYCRTGRAATR [chain 3 C12A]: the response was around 1.1 OD450nm. On the same count and under the same terms, under chain 3 ARAACYCRTGRCATR [chain 3 T4A] stands around 1.9 OD450nm.

Consider chain 3 ARATCYCRTGRCAAR [chain 3 T14A], for which the response was around 2 OD450nm. For chain 3 ARATCYCRTGACATR [chain 3 R11A], the response was around 0.07 OD450nm. Same read-out and setting: with chain 3 AAATCYCRTGRCATR [chain 3 R2A] the figure was around 1.9 OD450nm; with chain 3 ARATCYCRTARCATR [chain 3 G10A], around 1.9 OD450nm. Regarding chain 3 ARATCYCRTGRCGTR [chain 3 A13G], the response was around 1.8 OD450nm.
